Data: the DeepSol protein solubility set

Experiment: soluble on expression in E. coli; label from the status in PepcDB or PDB records

| Sequence | soluble on expression in E. coli |
| --- | --- |
| MGSDKIHHHHHHMPKLASIAPSMESTRPLLQPITVVNRQLQAHCHVMSHSHLWGQFVYASQGVLAVNTPAARYLVTPEQGVWVNSNISHSVTAITEVRLTSFYLDESQCQALPEQSCVLNVAPFLHALIQEARLIPSDFDWQGPRGRLLRLIRDWLSEAKNAPFHLPYSSHPKLMQLFGELQNNPANQDNIATWGQRLGASSRTLSRLIKAETGLSYRHWRQRLNLQLSLSLLAQGHSINHIADSLGYASPSAFIHMFKQQTGDSPARYRK | not soluble |
| MGSDKIHHHHHHMNRFIIADASKCIGCRTCEVACVVSHQEHQDCASLTPHTFQPRIHVIKGVNVSTATACRQCEDAPCANVCPNGAISRDKGFVHVMQERCIGCKTCVVACPYGAMEVVVRPVIRHSGAGLNVVAEKAEANKCDLCFHRESGPACMEVCPTHALVCVDRNKLEQMNIEKRRRTALAW | not soluble |
| MGSDKIHHHHHHMESTMKLATAPDAWGVWYADDPRQTPWERYLDEVRDSGFTATETGPWGYLPTDPSHLTDALGSRGLSVCGSALVHLLAPADAMETLRPRLEQTCGLLKAMKAEWVVLMDDSDLPLPGQSRALSPHDWASMIRNIKDAARYVTEEHGLSFVFHPHVGSGVETEAEVIRLLEETSEDSVGLCFDFGHHAYTGADAVAFMKRYADRIPYYHFKNVDPVLLAHIRQNNINFIEGFQSGVMCELDKGMVDFAEVRDFLATRGFDGYAVYEQDMYPCPPEKPFPIACHNRQVLRELGI | not soluble |
| MLFTEMEIEIPKAVFEELQLYIEYLQEKTGKTIDPMAAIGNILQTYFENNGLWGVSEEDFKEKAKIAVKKLLTKKAKKDKPLLTKKVEKLLTQAVEIEQVPAKTAGQIAYQAKALVQVTFPHRDPKTPYYRCDSGKYSLIITADPDHGIPYGTYPRLITCWLVTEIVRTNSRRIVLGKCFSDFLRSIGVGLDSRTRKQVEQQIKRLFSADIKLKYNSKESWQFQRCNVATKAAMWWDTKNPDQFTLDESFVVVGEDFYAMALNAPFPIDLRALAALKQSPMALDIYMWLTLRMCHLAAPYPLSWPQLKSQFGPETSDLDNFRTKFKDALKKVRVVYPHAKLSVNAKELTLFPSPTHVQKAVKRVAALEHHHHHH | soluble |
| MSRYCSECGKARKACLCPSIVALESAVELIILQHPTEQKRPLGTARILSLSLANCRLLVGEDFREHDELNQLLAEPDVDYYVLYPNEHAQECTKISLTTARKTRVILLDGTWKKAYKMWQINTQLHDLPSLHLPDECVGHYRIRKAPDDTALSTVEAGYHLLQQWQPERDFSPLLKVFDAMIQYQIDQMPEGVFERNYRQLEHHHHHH | not soluble |
| MQGRVKWFNAEKGFGFIEREDGDDVFVHFSAIQQDGYKSLEEGQQVEFDIVDGARGPQAANVVKL | not soluble |
| MSVGKPLPHDSARAHVTGQARYLDDLPCPANTLHLAFGLSTEASAAITGLDLEPVRESPGVIAVFTAADLPHDNDASPAPSPEPVLATGEVHFVGQPIFLVAATSHRAARIAARKARITYAPRPAILTLDQALAADSRFEGGPVIWARGDVETALAGAAHLAEGCFEIGGQEHFYLEGQAALALPAEGGVVIHCSSQHPSEIQHKVAHALGLAFHDVRVEMRRMGGGFGGKESQGNHLAIACAVAARATGRPCKMRYDRDDDMVITGKRHDFRIRYRIGADASGKLLGADFVHLARCGWSADLSLPVCDRAMLHADGSYFVPALRIESHRLRTNTQSNTAFRGFGGPQGALGMERAIEHLARGMGRDPAELRALNFYDPPERGGLSAPPSPPEPIATKKTQTTHYGQEVADCVLGELVTRLQKSANFTTRRAEIAAWNSTNRTLARGIALSPVKFGISFTLTHLNQAGALVQIYTDGSVALNHGGTEMGQGLHAKMVQVAAAVLGIDPVQVRITATDTSKVPNTSATAASSGADMNGMAVKDACETLRGRLAGFVAAREGCAARDVIFDAGQVQASGKSWRFAEIVAAAYMARISLSATGFYATPKLSWDRLRGQGRPFLYFAYGAAITEVVIDRLTGENRILRTDILHDAGASLNPALDIGQIEGAYVQGAGWLTTEELVWDHCGRLMTHAPSTYKIPAFSDRPRIFNVALWDQPNREETIFRSKAVGEPPFLLGISAFLALHDACAACGPHWPDLQAPATPEAVLAAVRRAEGRA | soluble |
| MIIDQQLVCYKRLPNWTATTLPEMVTQKHNTKVGTWAKLTILSGTLHFYELDEQGEITAEHLFTPETEIPFVEPQSWHRIAAASDNLECYLSFYCKPEDYMAKKYDTKAHSEVLEAVQSGHIKPGRTLDLGCGHGRNALYLASLGHEVTAVDINNEATQRIQMIADEESYNVRAGYYDINVSALPESETFDFILSTVVFMFLDPNQIPAIIQNMQERTSIGGYNLIVCAMDTEEHPCTMPFPFTFEEGELKNYYSDWELIKYNENLGHLHRLDEHGNPIALQFATMLAKKVTLEHHHHHH | soluble |
| MGSDKIHHHHHHMSDLQSLQPKLLWQWFDQICAIPHPSYKEEQLAQFIINWAKTKGFFAERDEVGNVLIRKPATVGMENRKPVVLQAHLDMVPQANEGTNHNFDQDPILPYIDGDWVKAKGTTLGADNGIGMASALAVLESNDIAHPELEVLLTMTEERGMEGAIGLRPNWLRSEILINTDTEENGEIYIGCAGGENADLELPIEYQVNNFEHCYQVVLKGLRGGHSGVDIHTGRANAIKVLLRFLAELQQNQPHFDFTLANIRGGSIRNAIPRESVATLVFNGDITVLQSAVQKFADVIKAELALTEPNLIFTLEKVEKPQQVFSSQCTKNIIHCLNVLPNGVVRNSDVIENVVETSLSIGVLKTEDNFVRSTMLVRSLIESGKSYVASLLKSLASLAQGNINLSGDYPGWEPQSHSDILDLTKTIYAQVLGTDPEIKVIHAGLECGLLKKIYPTIDMVSIGPTIRNAHSPDEKVHIPAVETYWKVLTGILAHIPSR | not soluble |
| MAHHHHHHMFFRTCCRLMVRPTALQRCKSVNSVTLVGVVHDIQSGFVYEDAVTQFTLTTTSIDTTHPTQEVVVEKDHHTIRCFGELFSAEVKQKVKEGNVVCVNGRLRLSPQLEPSCNKHFYFPYIQVQPPHGQVAVIHGDRRNTPASVNPTAEEIPAESESGTTSKTS | not soluble |
| MASMTGGQQMGRGSPNMLRKRQMTVLDLHPGSGKTRKILPQIIKDAIQQRLRTAVLAPTRVVAAEMAEALRGLPVRYQTSAVQREHQGNEIVDVMCHATLTHRLMSPNRVPNYNLFVMDEAHFTDPASIAARGYIATKVELGEAAAIFMTATPPGTTDPFPDSNAPIHDLQDEIPDRAWSSGYEWITEYAGKTVWFVASVKMGNEIAMCLQRAGKKVIQLNRKSYDTEYPKCKNGDWDFVITTDISEMGANFGASRVIDCRKSVKPTILEEGEGRVILGNPSPITSASAAQRRGRVGRNPNQVGDEYHYGGATSEDDSNLAHWTEAKIMLDNIHMPNGLVAQLYGPEREKAFTMDGEYRLRGEEKKNFLELLRTADLPVWLAYKVASNGIQYTDRKWCFDGPRTNAILEDNIEVEIVTRMGERKILKPRWLDARVYADHQALKWFKDFAAGKRHHHHHH | soluble |
| AQYEDGKQYTTLEKPVAGAPQVLEFFSFFCGHAYQFEEVLHISDNVKKKLPEGVKMTKYHVNFMGGDLGKDLTQAWAVAMALGVEDKVTVPLFEGVQKTQTIRSASDIRDVFINAGIKGEEYDAAWNSFVVKSLVAQQEKAAADVQLRGVPAMFVNGKYQLNPQGMDTSNMDVFVQQYADTVKYLSEKK | soluble |
| MSLSAVKIAVILPMTGGISAFGRMVWEGIQIAHEEKPTVLGEEVELVLLDTRSEKTEAANAAARAIDKEKVLAIIGEVASAHSLAIAPIAEENKVPMVTPASTNPLVTQGRKFVSRVCFIDPFQGAAMAVFAYKNLGAKRVVVFTDVEQDYSVGLSNFFINKFTELGGQVKRVFFRSGDQDFSAQLSVAMSFNPDAIYITGYYPEIALISRQARQLGFTGYILAGDGADAPELIEIGGEAVEGLLFTTHYHPKAASNPVAKKFVEVYKEKYGKEPAALNALGYDAYMVLLDAIERAGSFDREKIAEEIRKTRNFNGASGIINIDENGDEGHHHHHH | soluble |
| MKGSASTKPGGSPSTSRTAHPARANTSGNASTSGKQPQGPRAPVHAKGKPKRGGAEAEATESDKVAYTVIITNVENDFGKLHRACLPYYCGLRSDYEGTLDVERLLHEGGPQSRRLIGAVRGCSYAVRCRTETRSAEISLYGPANADFAPMQLTKAPRRPSTPAADAKSMAAPTTSSSEKLAQKDTTAPAEDVSEETALANVGAVEQLALRLRRQHYFEEHLPVSVHLPGRKADEVLLRIDKGSASSDADGTNATGVKNEEANGVAEDADADRRGSAATPVTASASREKRQRVVEEDRNADAPSLQRVKAEAPDGDEEGTEEDSATAHERGKTTENDVDRRADNGGRRSRRLTKSKSATIIAQFPRRQKDFVTAVAALSSRVPLQRVRGRLRDLPGFLSCWSLYERHLRVVFRDAESLFKAKQLLDQFELEPGLRVSLIFSDPLSRTNAEYLRAQENESVNE | not soluble |
| MNVASRVVVNADRVKGTINRNIYGHFSEHLGRCIYEGLWVGEDSPIPNTNGIRNDVLEALKQMKIPVLRWPGGCFADEYHWKDGVGPREKRKRMVNTHWGGVIENNHFGTHEFMMLCELLGCEPYISGNVGSGTVQEMSEWVEYITFDGESPMANWRRENGREKPWRIKYWGVGNQNWGCGGNMRAEYYADLYRQFQTYLRNYGDNKLHKIACGANTADYHWTEVLMKQAAPFMHGLSLHYYTVPGPWEKKGPATGFTTDEWWVTLKKALFMDRLVTKHSAIMDVYDPDKRIDLIVDEWGTWYDVEPGTNPGFLYQQNSIRDALVAGATLHIFHRHCDRVRMANIAQLVNVLQSVILTEGERMLLTPTYHVFNMFKVHQDAELLDTWESVERTGPEGELPKVSVSASRAADGKIHISLCNLDFETGASVDIELRGLNGGVSATGTTLTSGRIDGHNTFDEPERVKPAPFRDFKLEGGHLNASLPPMSVTVLELTAG | soluble |
| MPVTQEEIIAGIAEIIEEVTGIEPSEITPEKSFVDDLDIDSLSMVEIAVQTEDKYGVKIPDEDLAGLRTVGDVVAYIQKLEEENPEAAQALRAKIESENPDAVANVQARLEAESK | soluble |
| SGSHTALIEVKGMIADDEPASADNIVTALRAAFKDEGTKGIVLRINSPGGSPVQSGYIYDEIRRLRGEHPNVKVYAVISDLGASGAYYIASAADQIYADKASLVGSIGVTAASFGFVGTMEKLGVERRVYTSGEHKSFLDPFQPQKPEETQFWQQVLDTTHKQFIDSVKKGRGDRLKVEGHPELFSGLVWSGEQALQLGLIDGLGNASYVAREVVKEKKIEDYTVQESPFDRFAKKFGASVAERLALWMGWQGPVLR | not soluble |
| MKFKKLFSRLLLATGIMFAGTFTYQNIEHTHVSKAASYNYYTKGQCTWWAYQRRAQLGKPVSNRWGNAKNWYYNAKRSGYRTGHTPKRYAVMQSTAGYYGHVAVVERVYSNGSIKVSEYNYNRPSAYGTRYLSKWSARNYNYIYLEHHHHHH | not soluble |
| MSRNMFKLAHISDVHLGPLPRLSIQELFSKRITGFVNWHRNRRKHLFASTLDLLLDDIRTHRADHLAVTGDLVNLASGIEIRAAAAWLRALGDPADTSVVPGNHDAYVPGAYEKSMRAWYDYVRGDLAPPQWQEDRRIFPYLRVRDKVAIVGCSTAVATPPFAASGFFSARQARDTVNMLRAAGEAGLFRVVMIHHPPIRGATAFHKRMIGIRRFAAVISTGGAELVLHGHTHLNTLHWLRGQVQPVPVVGIASASQGPGSIKPPAAYNLFSIDGAPGAWELEHHHHHH | soluble |
